Experimental data: patent US7998940B2, “Aptamers to von Willebrand factor and their use as thrombotic disease therapeutics” (Archemix Corp., priority 2004, dated 2011)

What was measured:
[1] = target: T1, human vWF A1 domain (SEQ ID NO 5) (Homo sapiens, UniProt P04275, T1381A); test: 3-point dot blot screen, human vWF A1 domain; assay type: binding; conditions: DNA SELEX 1 aptamers; 100 nM human vWF A1 domain; ratio of fraction bound with target to without
Procedure, shortened: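 Values are ratios of aptamer fraction retained on nitrocellulose with 100 nM vWF A1 domain (human or rabbit) versus a no-protein control. Unique clones from rounds 9 and 12 pools were transcribed, desalted and 5'-32P labeled before this three-point dot blot screen.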

[2] = test system: rabbit vWF A1 domain (SEQ ID NO 6); test: 3-point dot blot screen, rabbit vWF A1 domain; assay type: binding; conditions: DNA SELEX 1 aptamers; 100 nM rabbit vWF A1 domain; ratio of fraction bound with target to without
Chain of rabbit vWF A1 domain (SEQ ID NO 6) (as listed by the source): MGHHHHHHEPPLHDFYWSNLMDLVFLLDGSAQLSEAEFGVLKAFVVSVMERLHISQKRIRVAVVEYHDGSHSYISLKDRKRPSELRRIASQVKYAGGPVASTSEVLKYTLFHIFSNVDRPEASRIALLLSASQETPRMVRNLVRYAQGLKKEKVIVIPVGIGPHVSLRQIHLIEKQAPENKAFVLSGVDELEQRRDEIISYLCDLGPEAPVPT
Procedure, shortened: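 Rabbit vWF A1 domain binding was screened by dot blot using three conditions: no target protein, human vWF, and rabbit vWF A1 domain at 100 nM (20 nM in the screen run twice). Radiolabeled aptamer bound to nitrocellulose was quantified, and results are expressed as the ratio of bound fraction with protein to bound fraction without protein.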

[3] = target: T1, human vWF A1 domain (SEQ ID NO 5); test: dot blot KD determination, human vWF A1 domain; conditions: read-out: Human A1 KD; DNA SELEX 1 aptamers; competition dot blot, 100 nM protein, cold competitor titration
Procedure: For KD determination, aptamers transcripts were purified on 10% denaturing polyacrylamide gels, 5′ end labeled with γ-^32P ATP.
For KD determination, aptamers were purified on denaturing polyacrylamide gels and 5′-end labeled with γ-^32P ATP. A 6 point protein titration of human vWF A1 domain (SEQ ID NO 5) was used in the dot blot assay (333 nM, 100 nM, 33 nM, 10 nM, 3 nM, 0 nM) in 1×DPBS plus 0.1 mg/mL BSA at room temperature for 30 minutes. KD values were calculated by fitting the equation y=(max/(1+K/protein))+yint using KaleidaGraph (KaleidaGraph v. 3.51, Synergy Software).
KD values were calculated by fitting the equation y=(max/(1+K/protein))+yint using KaleidaGraph (KaleidaGraph v. 3.51, Synergy Software).
All minimer sequences were transcribed, gel-purified on 15% denaturing polyacrylamide gels, 5-^32 end-labeled with γ^32P ATP, and then desalted using two Centri-Spin 10 columns (Princeton Separations Cat. #CS-101, Adelphia, N.J.). For KD determination, minimer transcripts were tested for direct binding to full length human vWF (SEQ ID NO 7), human vWF A1 domain (SEQ ID NO 5), and rabbit vWF A1 domain (SEQ ID NO 6) using an 8 point protein titration from 0-300 nM (3 fold dilutions) in 1× Dulbecco's PBS containing 0.1 mg/mL BSA (in a final volume of 50 uL) for 30 minutes at room temperature and then applied to a nitrocellulose and nylon filter sandwich in a dot blot apparatus (Schleicher and Schuell, Keene, N.H.). KD values were calculated by fitting the equation y=(max/(1+K/protein))+yint using KaleidaGraph (KaleidaGraph v. 3.51, Synergy Software).
All minimer DNA sequences were chemically synthesized, 5-^32P end-labeled with γ-^32P ATP, and then desalted using two Centri-Spin 10 columns (Princeton Separations, Cat. #CS-101, Adelphia, N.J.). […] KD values were calculated by fitting the equation y=(max/(1+K/protein))+yint using KaleidaGraph (KaleidaGraph v. 3.51, Synergy Software).

T1 sequence (P04275 with tags, fused parts or gaps T1381A): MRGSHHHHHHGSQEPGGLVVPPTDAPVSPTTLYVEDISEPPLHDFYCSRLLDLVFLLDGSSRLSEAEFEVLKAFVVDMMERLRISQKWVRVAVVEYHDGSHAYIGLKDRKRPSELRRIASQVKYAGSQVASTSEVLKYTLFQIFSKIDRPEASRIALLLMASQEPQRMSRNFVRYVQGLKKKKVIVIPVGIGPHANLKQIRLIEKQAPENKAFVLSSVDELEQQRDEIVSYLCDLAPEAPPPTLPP

B1: AMX199.C2: DNA SELEX 1 aptamer clone (nucleic acid)
DNA: CTACCTACGATCTGACTAGCGGAATGAGAATGCTGGTGGATTGCCCAGGTCTGCTGGCTGCTTACTCTCATGTAGTTCC
modifications: DNA, backbone not given here
notes: DNA SELEX 1 aptamer clone
With B1 the “Screen- Human/No Protein” value [1] was 5.09, the “Screen- Rabbit/No Protein” value [2] was 4.61 and the Kd [3] was 17 nM.

B2: AMX200.F11: DNA SELEX 1 aptamer clone (nucleic acid)
DNA: CTACCTACGATCTGACTAGCGGAATGAGGATGCTGGTGGATTGCTCAGGTCTGCTGGCTGCTTACTCTCATGTAGTTCC
modifications: DNA, backbone not given here
notes: DNA SELEX 1 aptamer clone
For B2, the “Screen- Human/No Protein” value [1] was 3.83, the “Screen- Rabbit/No Protein” value [2] was 3.25 and the Kd [3] was 34 nM.

B3: AMX199.B7: DNA SELEX 1 aptamer clone (nucleic acid)
DNA: CTACCTACGATCTGACTAGCGGGATGAGAGTGCTGGTGGATTGCTCAGGTCTGCTGGCTGCTTACTCTCATGTAGTTCC
modifications: DNA, backbone not given here
notes: DNA SELEX 1 aptamer clone
In the case of B3, the “Screen- Human/No Protein” value [1] is reported as 4.08, the “Screen- Rabbit/No Protein” value [2] is reported as 3.65 and the Kd [3] is reported as 29 nM.

B4: AMX199.B3: DNA SELEX 1 aptamer clone (nucleic acid)
DNA: CTACCTACGATCTGACTAGCGGAATGAGAATGCTGATGGATTGCTCAGGTCTGCTGGCTGCTTACTCTCATGTAGTTCC
modifications: DNA, backbone not given here
notes: DNA SELEX 1 aptamer clone
With B4 the “Screen- Human/No Protein” value [1] was 1.76, the “Screen- Rabbit/No Protein” value [2] was 1.99 and the Kd [3] was 30 nM.

B5: AMX200.D3: DNA SELEX 1 aptamer clone (nucleic acid)
DNA: CTACCTACGATCTGACTAGCGCAATGAGGATGCTGATGGATTGCTCAGGTCTGCTGGCTGCTTACTCTCATGTAGTTCC
modifications: DNA, backbone not given here
notes: DNA SELEX 1 aptamer clone
B5 was tested, and the “Screen- Human/No Protein” value [1] was 2.68, the “Screen- Rabbit/No Protein” value [2] was 2.41 and the Kd [3] was 36 nM.

B6: AMX199.C4: DNA SELEX 1 aptamer clone (nucleic acid)
DNA: CTACCTACGATCTGACTAGCGGAATGAGGATGCTGATGGATTGCACAGGTCTGCTGGCTGCTTACTCTCATGTAGTTCC
modifications: DNA, backbone not given here
notes: DNA SELEX 1 aptamer clone
With B6 the “Screen- Human/No Protein” value [1] was 3.60, the “Screen- Rabbit/No Protein” value [2] was 2.85 and the Kd [3] was 34 nM.

B7: AMX199.D11: DNA SELEX 1 aptamer clone (nucleic acid)
DNA: CTACCTACGATCTGACTAGCGGAATGAGAATGCTGGTGGATTGCTCAGGTCTGCTGGCTGCTTACTCTCATGTAGTTCC
modifications: DNA, backbone not given here
notes: DNA SELEX 1 aptamer clone
With B7 the “Screen- Human/No Protein” value [1] was 4.19, the “Screen- Rabbit/No Protein” value [2] was 3.42 and the Kd [3] was 30 nM.
